In assay [1] the target is T1, human DLL4 extracellular domain (human, UniProt Q9NR61 27-529).
T1 construct: purified recombinant ECD; biotin-labelled or 6xHis-tagged depending on the assay; also called huDLL4 ECD; hu DLL4 ECD
As to the kind of experiment: SPR (Biacore). An outline of the steps:
(§1)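 Purified anti-DLL4 antibodies (1 μg/ml) captured on immobilized goat anti-human Fc, with DLL4 ECD injected as analyte; HBS-EPB running buffer (pH 7.4), 25° C, referenced against capture-only surface. On/off rates from global 1:1 Langmuir fit; KD = Koff/Kon.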

In assay [2] the target is T2, cynomolgus monkey DLL4 extracellular domain (cynomolgus monkey).
T2 construct: extracellular domain; also called cynoDLL4 ECD; Cyno DLL4
As to the kind of experiment: SPR (Biacore). Summed up: as §1
A general note: Surface plasmon resonance follows binding to a sensor surface in real time, without labels.

The target of assay [3] is T3, rat DLL4 extracellular domain (rat, UniProt D3ZHH1 28-530).
T3 construct: extracellular domain; also called ratDLL4 ECD
As to the kind of experiment: SPR (Biacore). An outline of the steps:
as §1

Assay [4] has as its target T4, human DLL4, full length, on cells (human, UniProt Q9NR61 27-685).
T4 construct: also called huDLL4 cells; human DLL4-293G
As to the kind of experiment: FACS, DLL4 cells. (In general: In flow cytometry, cells or beads pass a laser one at a time.)

The target of assay [5] is T4, human DLL4, full length, on cells. As to the kind of experiment: cell-based or functional assay.
Assay [6] deals with T1, human DLL4 extracellular domain. As to the kind of experiment: binding ELISA, DLL4 ECD. Background: ELISA stands for enzyme-linked immunosorbent assay.
Assay [7] has as its target T5, mouse DLL4 extracellular domain (mouse, UniProt Q9JI71 27-532).
T5 construct: extracellular domain; also called muDLL4 ECD; murine DLL4
As to the kind of experiment: binding ELISA, DLL4 ECD.

Assay [8] has as its target T6, mouse DLL4 on cells (mouse, UniProt Q9JI71 27-686).
T6 construct: whole, on cells; also called mouse DLL4-293G; mu DLL4 cells
As to the kind of experiment: FACS on cells expressing mouse DLL4.

Assay [9] deals with T4, human DLL4, full length, on cells. As to the kind of experiment: competition FACS: huNotch-1-biotin to DLL4 cells.
For assay [10], the target named is T1, human DLL4 extracellular domain. As to the kind of experiment: competition ELISA: biotin-DLL4 ECD to coated huNotch-1. As to the method:
(§2) Plates were then washed 3 times with wash buffer (PBS, 0.05% Tween-20) and blocked with 200 μl/well blocking buffer (D-PBS, 1% BSA, 1 mM CaCl₂, 0.05% Tween-20) for 1 hour at 25° C. While blocking, biotin labeled DLL4 extracellular domain (14 nM) was mixed with antibody (30 pM-66 nM, 3-fold serial dilution in blocking buffer) for 1 hour at 25° C. with shaking. Assay plates were washed after blocking, and incubated with DLL4/antibody mixtures (100 μl/well, 1 hour at 25° C. with shaking). Plates were washed again and 100 μl/well streptavidin conjugated with HRP (Fitzgerald #65R-S104PHRPx, diluted 1:5,000 in blocking buffer) was added for 1 hour at 25° C. with shaking. After a final wash, plates were developed using 100 μl/well substrate (TMB Sigma #T8665), and the reaction was stopped using 100 μl/well 1N HCl, and the absorbance was read at 450 nm. Data were analyzed using Graphpad Prism software and IC₅₀ values were reported as the concentration of antibody to achieve 50% reduction of DLL4 bound to Notch1.
(§3) Further characterization determined 37D10 and 40B10 were identical rat mAbs.

The target in assay [11] is T5, mouse DLL4 extracellular domain. As to the kind of experiment: SPR (Biacore). Summed up:
as §1

Assay [12] concerns the target T6, mouse DLL4 on cells. As to the kind of experiment: FACS, DLL4 cells.
Assay [13] has as its target T6, mouse DLL4 on cells. As to the kind of experiment: competition FACS: huNotch-1-biotin to DLL4 cells.
The target in assay [14] is T5, mouse DLL4 extracellular domain. As to the kind of experiment: competition ELISA: biotin-DLL4 ECD to coated huNotch-1. The protocol: as §2, §3
The target in assay [15] is T1, human DLL4 extracellular domain. As to the kind of experiment: SPR (Biacore). The source holds these as a separate data set.
Assay [16] shares this target. As to the kind of experiment: competition ELISA vs Notch-1.
Assay [17] has as its target T5, mouse DLL4 extracellular domain. As to the kind of experiment: competition ELISA vs Notch-1.

Read-outs that look alike come from different tables or passages of the source. A value given as a limit tells only on which side of the number the result lay.

From US20110217237A1 (AbbVie / Abbott, published 2011) come the findings set out here.

T6 sequence (Q9JI71 27-686): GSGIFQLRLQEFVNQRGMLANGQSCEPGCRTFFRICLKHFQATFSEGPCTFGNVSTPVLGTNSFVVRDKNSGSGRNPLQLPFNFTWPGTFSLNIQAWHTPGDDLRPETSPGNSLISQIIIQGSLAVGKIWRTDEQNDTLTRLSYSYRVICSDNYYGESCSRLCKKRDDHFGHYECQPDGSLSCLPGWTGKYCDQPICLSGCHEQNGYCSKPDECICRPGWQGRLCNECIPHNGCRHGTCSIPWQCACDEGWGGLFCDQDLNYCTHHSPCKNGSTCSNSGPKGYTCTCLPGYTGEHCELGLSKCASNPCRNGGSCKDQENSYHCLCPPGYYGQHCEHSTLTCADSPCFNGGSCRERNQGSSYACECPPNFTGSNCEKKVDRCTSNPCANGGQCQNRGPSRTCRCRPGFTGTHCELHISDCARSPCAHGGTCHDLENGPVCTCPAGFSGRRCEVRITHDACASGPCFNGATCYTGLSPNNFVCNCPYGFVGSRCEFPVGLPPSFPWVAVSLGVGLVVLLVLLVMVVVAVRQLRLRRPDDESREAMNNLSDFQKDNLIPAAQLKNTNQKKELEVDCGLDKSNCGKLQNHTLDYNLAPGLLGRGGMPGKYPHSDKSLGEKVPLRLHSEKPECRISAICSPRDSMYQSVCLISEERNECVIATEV
T4 sequence (Q9NR61 27-685 limits assumed): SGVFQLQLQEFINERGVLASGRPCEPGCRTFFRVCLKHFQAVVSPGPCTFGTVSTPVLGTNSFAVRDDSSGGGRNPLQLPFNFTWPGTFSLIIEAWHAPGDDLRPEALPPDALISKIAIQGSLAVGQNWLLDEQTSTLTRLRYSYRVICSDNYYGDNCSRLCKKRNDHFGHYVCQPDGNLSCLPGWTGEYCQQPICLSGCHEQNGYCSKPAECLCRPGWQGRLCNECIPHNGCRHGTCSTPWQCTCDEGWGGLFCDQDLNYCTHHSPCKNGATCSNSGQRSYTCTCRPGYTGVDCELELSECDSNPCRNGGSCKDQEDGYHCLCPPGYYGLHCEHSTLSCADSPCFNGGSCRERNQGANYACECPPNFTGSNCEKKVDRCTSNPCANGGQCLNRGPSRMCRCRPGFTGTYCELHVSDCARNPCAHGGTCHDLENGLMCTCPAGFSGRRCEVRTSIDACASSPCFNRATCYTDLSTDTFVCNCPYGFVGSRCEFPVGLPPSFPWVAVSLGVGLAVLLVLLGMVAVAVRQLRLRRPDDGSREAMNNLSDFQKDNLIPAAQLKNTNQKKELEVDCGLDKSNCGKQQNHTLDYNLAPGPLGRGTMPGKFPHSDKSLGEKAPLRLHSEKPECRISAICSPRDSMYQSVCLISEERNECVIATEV
T1 sequence (Q9NR61 27-529 limits assumed): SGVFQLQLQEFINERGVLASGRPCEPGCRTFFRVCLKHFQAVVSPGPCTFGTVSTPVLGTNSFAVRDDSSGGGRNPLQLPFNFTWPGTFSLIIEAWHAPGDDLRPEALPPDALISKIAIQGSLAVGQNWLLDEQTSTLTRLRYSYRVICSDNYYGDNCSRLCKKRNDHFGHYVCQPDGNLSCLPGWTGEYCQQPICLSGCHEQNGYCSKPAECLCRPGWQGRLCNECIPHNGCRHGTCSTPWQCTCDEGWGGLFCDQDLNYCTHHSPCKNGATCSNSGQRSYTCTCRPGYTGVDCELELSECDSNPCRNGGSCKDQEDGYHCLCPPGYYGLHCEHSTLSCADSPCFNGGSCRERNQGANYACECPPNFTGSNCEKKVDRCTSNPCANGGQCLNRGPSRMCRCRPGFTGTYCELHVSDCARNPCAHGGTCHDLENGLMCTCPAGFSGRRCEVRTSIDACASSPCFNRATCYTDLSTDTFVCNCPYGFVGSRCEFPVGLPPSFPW
T5 sequence (Q9JI71 27-532): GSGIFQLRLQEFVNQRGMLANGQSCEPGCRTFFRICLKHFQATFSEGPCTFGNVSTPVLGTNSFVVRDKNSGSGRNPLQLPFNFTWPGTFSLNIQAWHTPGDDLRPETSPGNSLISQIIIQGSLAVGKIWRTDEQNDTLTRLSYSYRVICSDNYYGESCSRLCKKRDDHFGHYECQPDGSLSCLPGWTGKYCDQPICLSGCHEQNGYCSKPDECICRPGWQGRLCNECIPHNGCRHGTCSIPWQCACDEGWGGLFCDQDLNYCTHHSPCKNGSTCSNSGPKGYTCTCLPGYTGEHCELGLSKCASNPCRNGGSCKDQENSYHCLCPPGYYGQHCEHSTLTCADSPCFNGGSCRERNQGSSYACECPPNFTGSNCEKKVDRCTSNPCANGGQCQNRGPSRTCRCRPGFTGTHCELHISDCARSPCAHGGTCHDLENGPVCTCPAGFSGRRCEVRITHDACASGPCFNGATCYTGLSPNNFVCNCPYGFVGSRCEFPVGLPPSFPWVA
T3 sequence (D3ZHH1 28-530): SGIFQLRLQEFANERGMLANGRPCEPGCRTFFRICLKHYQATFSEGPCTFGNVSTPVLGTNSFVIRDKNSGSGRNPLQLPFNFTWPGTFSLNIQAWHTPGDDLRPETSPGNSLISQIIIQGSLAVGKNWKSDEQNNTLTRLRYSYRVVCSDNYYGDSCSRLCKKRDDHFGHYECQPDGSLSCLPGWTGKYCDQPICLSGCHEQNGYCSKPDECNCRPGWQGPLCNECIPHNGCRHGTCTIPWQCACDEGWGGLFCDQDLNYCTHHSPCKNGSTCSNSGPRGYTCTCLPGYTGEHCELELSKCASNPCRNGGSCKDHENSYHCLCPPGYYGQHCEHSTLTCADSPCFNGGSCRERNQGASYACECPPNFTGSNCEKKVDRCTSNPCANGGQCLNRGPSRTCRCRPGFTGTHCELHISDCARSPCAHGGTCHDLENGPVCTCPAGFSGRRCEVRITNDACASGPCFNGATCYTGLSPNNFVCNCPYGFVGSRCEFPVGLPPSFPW

B1: 38H12 rat anti-DLL4 monoclonal antibody (antibody, rat IgG2a, V domains shown)
VH: EVQLVESGGGLVQPGRSLKLSCAASGFTFSNYGMYWIRQAPTKGLQWVAFISHGGGITYYRDSVKGRFTISRDNAKSTLYLQMDSLRSEDTATYHCAALNWELGIDYWGQGVMVTVSS
VL: DIQMTQSPASLSASLGETISIECRASEDIYSNLAWYQKKSGKSPQLLIYAANRLQDGVPSRFSGSGSGTQYSLKISGMQPEDEGDYFCLQGSKFPLTFGSGTKLEIKR
notes: rat IgG2a/k hybridoma mAb; also called MC10-38H12.2G8; 38H12 rat mAb
For B1, the Kd (as a rule, the free concentration of one partner at which half of the binding sites on the other are occupied at equilibrium, for simple one-to-one binding) in assay [1] turned out to be 0.3 nM; in [2], 0.4 nM. Besides, the koff (usually the rate constant with which the complex falls apart) turned out to be 0.00011 s⁻¹ in [1] and 9.8e-05 s⁻¹ in [2]. For the same molecule, the kon (as a rule, the rate constant with which the complex forms) in assay [1] worked out at 400000 M⁻¹ s⁻¹; in assay [2], 260000 M⁻¹ s⁻¹. Also, the binding result (in assay [3]; in assay [7]; in the assay with mouse DLL4 on cells [8]) was “no binding” in each case. In addition, the EC50 (usually the concentration giving half of the maximal effect) amounted to 1.2 nM in [4] and 0.06 nM in [6]. Besides, the “Notch activation Inhibition (IC50, nM), huDLL4 cell/Notch reporter cells” value in [5] was 0.5 nM. Besides, the IC50 (as a rule, the point on the concentration scale where inhibition reaches its midpoint) in assay [9] was 1.7 nM; in [10], 3.63 nM.

B2: 37D10 rat anti-DLL4 monoclonal antibody (antibody, rat IgG2a, V domains shown)
VH: AVQLVESGGGLVQPKESLKISCAASGFTFSNAAMYWVRLAPGKGLEWVARIRTKPNNYATYYAESVKGRFTISRDDSKSMVYVQMDNLKTEDTAMYYCTAAPWRDSYAHVYWGQGVMVTVSS
VL: DIQMTQSPPVLSASVGDRVTLSCKASQNIHKNLDWYQQKHGDAPKLLIYYTDHLQTGVPSRFSGSGSATDYTLTISSLQPEDVATYYCYQYNGGPFTFGSGTKLEIKR
notes: rat IgG2a/k hybridoma mAb; also called 40B10; 37D10 = 40B10
As to B2, the Kd was 484 nM in [1], less than 617 nM in [2] and 135 nM in assay [11]. For the same molecule, the results for the koff in [1] and in assay [11] were 0.07 s⁻¹ and 0.0135 s⁻¹, respectively. The kon in [1] was determined as 140000 M⁻¹ s⁻¹; in assay [2], 40000 M⁻¹ s⁻¹; in assay [11], 100000 M⁻¹ s⁻¹. Moreover, the EC50 is 2.3 nM in [4], 0.7 nM in the assay with mouse DLL4 on cells [12], 0.12 nM in assay [6] and 0.14 nM in assay [7]. Also, the IC50 in assay [9] was 5.5 nM; with mouse DLL4 on cells [13], 3.8 nM; in assay [10], 5.39 nM; in [14], 3.36 nM.

B3: 1A11 rat anti-DLL4 monoclonal antibody (antibody, rat IgG1, V domains shown)
VH: EVQLVESGGGLVQPGRSMKLSCAASGFTFRNFPMAWVRQAPTRGLEWVATISSSDGTTYYRDSVKGRFTISRDNAKSTLYLQVNSLRSEDTATYYCSRGYYNSPFAYWGQGTLVTVSS
VL: DIQMTQSPASLSASLGETVTIECRASEDIYSNLAWYQQKPGNSPQLLIFDTNNLADGVPSRFSGSGSGTQSSLKINSLQSEDVASYFCQQYNNYPPTFGGGTKLELKR
notes: rat IgG1/K hybridoma mAb; also called MC13-1A11.2E1; 1A11 (rat mAb)
B3: the Kd in assay [1] is 5.8 nM; in assay [2], 8.1 nM; in assay [15], 6 nM; in [11], 23 nM. Also, the off-rate constant (koff) came to 0.0011 s⁻¹ in [1], 0.00093 s⁻¹ in [2] and 0.0029 s⁻¹ in [11]. The kon in [1] was determined as 190000 M⁻¹ s⁻¹; in assay [2], 110000 M⁻¹ s⁻¹; in assay [11] it was 130000 M⁻¹ s⁻¹. In addition, the binding result in assay [3] is on record as “no binding”. Moreover, the EC50 was determined as 34.8 nM in [4], 0.8 nM with mouse DLL4 on cells [12], 0.06 nM in assay [6] and 0.11 nM in assay [7]. Besides, the “Notch activation Inhibition (IC50, nM), huDLL4 cell/Notch reporter cells” value in [5] is 2.9 nM. The IC50 was found to be 0.5 nM in [16]; 1.1 nM in assay [17]; 8.4 nM in [9]; 0.8 nM in the assay with mouse DLL4 on cells [13]; 0.78 nM in assay [10]; 0.79 nM in [14].
